Measured values taken from IntAct's records for PubMed 24705590.

B1: Microcin J25 (Escherichia coli), Q9X2V7 (parent)
chain: MIKHFHFNKLSSGKKNNVPSPAKGVIQIKKSASQLTKGGAGHVPEYFVGIGTPISFYG

Variants of: B1
Settings: with fhua_ecoli fhuA

**Q.** How did the “effect of a mutation on the interaction” value turn out when MIKHFHFNKLSSGKKNNVPSPAKGVIQIKKSASQLTKGGAGKVPEYFVGIGTPISFYG [H42K] was run?
**A.** decreasing interaction strength
